The target of this assay is β subunit of DNA polymerase III of Escherichia coli (Escherichia coli, UniProt P0A988 1-366). Put plainly: cell-based or functional assay.
β subunit of DNA polymerase III of Escherichia coli, sequence (P0A988 whole entry): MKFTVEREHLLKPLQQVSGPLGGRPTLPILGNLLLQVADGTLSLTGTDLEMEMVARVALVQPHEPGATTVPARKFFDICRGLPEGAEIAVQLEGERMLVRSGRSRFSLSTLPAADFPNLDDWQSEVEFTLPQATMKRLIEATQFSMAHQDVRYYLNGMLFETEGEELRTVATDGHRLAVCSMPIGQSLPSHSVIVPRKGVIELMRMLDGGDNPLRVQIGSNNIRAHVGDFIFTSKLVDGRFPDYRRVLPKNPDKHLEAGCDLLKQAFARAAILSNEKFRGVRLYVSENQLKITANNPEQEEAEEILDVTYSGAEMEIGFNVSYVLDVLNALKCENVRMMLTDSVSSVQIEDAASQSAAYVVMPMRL

Consider VTLLDPQMERQLVLGL [P16 peptide, the 16 last residues of Pol IV DNA polymerase of E. coli], for which the “β-dependent Pol IV activity (ratio of β-dependent to β-independent polymerase activities)” value is approximately 30 fold decrease.
